Results on 3 molecules are retold here after paper PMC10955041, “Reverse-engineering the anti-MUC1 antibody 139H2 by mass spectrometry–based de novo sequencing” (Life Science Alliance, 2024).

This assay addresses T1, full-length MUC1 glycoprotein of HT29-MTX cells (Homo sapiens, HT29-MTX cells, UniProt P15941, VNTR heavily O-linked glycosylated).
T1 construct: Mucin 1 (MUC1), endogenous in the human colon cancer cell line HT29-MTX; band at an estimated 600 kD; written here as one chain; also called Mucin 1; source: endogenous, HT29-MTX lysate (Western blot) and fixed, permeabilized HT29-MTX monolayers (immunofluorescence)
Briefly: far-Western, overlay or dot blot; immunoblot of SDS lysates of HT29-MTX and HT29-MTX ΔMUC1 cells on a mucin-SDS gel, PVDF; 139H2 antibodies 1:1,000 in TSMT with 1% BSA, 1 h at RT; detected with anti-mouse IgG. The conditions noted are these: one partner purified.

T1 sequence (P15941 24-1255): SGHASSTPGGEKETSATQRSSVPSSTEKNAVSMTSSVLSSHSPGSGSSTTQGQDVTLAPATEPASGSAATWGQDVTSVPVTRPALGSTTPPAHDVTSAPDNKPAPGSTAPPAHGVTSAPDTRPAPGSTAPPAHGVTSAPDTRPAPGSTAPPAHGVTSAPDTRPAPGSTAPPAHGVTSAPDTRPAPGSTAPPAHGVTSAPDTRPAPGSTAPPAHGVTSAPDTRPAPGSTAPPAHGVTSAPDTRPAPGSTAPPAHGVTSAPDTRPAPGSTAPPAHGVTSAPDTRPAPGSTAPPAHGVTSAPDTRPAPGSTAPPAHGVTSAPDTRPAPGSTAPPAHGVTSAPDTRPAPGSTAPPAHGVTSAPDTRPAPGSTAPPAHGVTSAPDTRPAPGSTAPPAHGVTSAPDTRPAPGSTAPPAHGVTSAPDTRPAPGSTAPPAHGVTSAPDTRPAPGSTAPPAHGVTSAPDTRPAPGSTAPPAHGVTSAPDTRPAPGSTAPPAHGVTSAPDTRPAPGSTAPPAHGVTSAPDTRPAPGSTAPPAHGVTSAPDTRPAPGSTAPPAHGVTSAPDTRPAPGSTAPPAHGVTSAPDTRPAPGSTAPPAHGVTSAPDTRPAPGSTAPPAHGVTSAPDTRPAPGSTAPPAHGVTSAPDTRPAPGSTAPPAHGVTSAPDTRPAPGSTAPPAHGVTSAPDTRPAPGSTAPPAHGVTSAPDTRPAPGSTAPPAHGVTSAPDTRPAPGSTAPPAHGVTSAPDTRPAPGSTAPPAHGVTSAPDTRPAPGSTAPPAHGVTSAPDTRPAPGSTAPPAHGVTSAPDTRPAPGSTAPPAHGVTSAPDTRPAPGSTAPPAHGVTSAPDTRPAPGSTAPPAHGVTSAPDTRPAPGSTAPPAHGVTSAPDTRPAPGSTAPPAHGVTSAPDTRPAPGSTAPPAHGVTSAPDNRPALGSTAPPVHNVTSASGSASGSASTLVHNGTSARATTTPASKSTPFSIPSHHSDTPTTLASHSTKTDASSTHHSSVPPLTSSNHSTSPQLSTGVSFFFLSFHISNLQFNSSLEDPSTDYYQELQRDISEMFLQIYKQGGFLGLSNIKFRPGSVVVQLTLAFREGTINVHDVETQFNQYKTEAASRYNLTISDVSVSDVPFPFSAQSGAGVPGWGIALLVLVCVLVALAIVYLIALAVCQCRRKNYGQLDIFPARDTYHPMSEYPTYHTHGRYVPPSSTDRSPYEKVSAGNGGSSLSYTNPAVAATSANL

B1: hybridoma-derived 139H2 IgG (antibody, V domains shown)
VH: QVQLQQSGAELVKPGASVKLSCKASGYTFTNYYMYWVLQRPGQGLEWIGEINPSNGGTTFNEKFKNKATLTVDKSSSTAYMQLNSLTSEDSAVYYCTRSRYGNYVNYGMDYWGQGTSVTVSS
VL: DIVMSQSPSSLAVSVGEKVTMSCKSSQSLLYSNTQKNYLAWYQQKPGQSPKLLIYWASTRESGVPDRFTGSGSGTDFTLTISSVKAENLAVYYCQQYYRYPPTFGGGTKLELK
notes: as the heavy-chain variable domain of m1 (IGHV1-53); as the light-chain variable domain of m1 (IGKV8-30); mouse kappa light-chain constant region; Mouse IgG1, kappa; also called original hybridoma-derived 139H2; 139H2 WT; source: hybridoma culture supernatant (gift, NKI), purified (Protein G Sepharose); copies: 2 + 2
As to B1, the binding result was “binds”.

B2: recombinant (reverse-engineered) 139H2 IgG (antibody, V domains shown)
VH: B1 VH
VL: B1 VL
notes: also in PDB 8P6I; standard mouse Ig gamma-1 (IGHG1) constant region, linker and Fc region, UniProt P01868.1; mouse kappa light-chain constant region (kappa light-chain backbone); Mouse IgG1, kappa; also called synthetic recombinant 139H2; recombinant 139H2; source: HEK293 cells (ImmunoPrecise Antibodies), culture supernatant, purified (HisTrap Excel); copies: 2 + 2
Regarding B2, the binding result is on record as “binds”.

B3: recombinant 139H2 Fab fragment (Fab, V domains shown)
VH: B1 VH
VL: B1 VL
notes: as the heavy-chain variable domain of m1 (IGHV1-53); mouse Ig gamma-1 (IGHG1) Fab constant region; as the light-chain variable domain of m1 (IGKV8-30); mouse kappa light-chain constant region, as in m1; also called monovalent Fab fragment; anti-MUC1 Fab; source: HEK293 cells (ImmunoPrecise Antibodies), culture supernatant, purified (HisTrap Excel, Superdex 200 SEC)
Turning to B3, the binding result is reported as “binds”.
